Results on 40 sequences are retold here after the nanobody polyreactivity screen of Harvey et al. (2022).

This data set is described as follows: yeast display, Sf9 membrane polyspecificity reagent, FACS + sequencing; frameworks hold sequencing errors. Summed up:
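Sorting gates, low and high (top ~1%), were placed on anti-HA fluorescence to track expression and on streptavidin fluorescence to track reagent binding. A clone's polyreactivity label is taken from the gate it came out of. The reagent was 10% biotinylated, detergent-solubilized Sf9 membrane, applied for 1 hour at 4 °C to galactose-induced yeast display cells.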
Turning to “QVQLVESGGGLVQAGGSLRLSCAASGSTFGTNAMGRYRQAPGKERELVAVITFSGGSTYYADSVKGRFTISRDNAKNTVYLQMNSLKPEDTAVYYCAKDGFITFVYDHDYWGQGTQVTVSS”, the “polyreactivity (PSR sort gate)” value was “low polyreactivity”.

As to “QVQLVESGGGLVQAGGSLRLSCAASGSTFGTNAMGWYRQAPGKERELVAAITKSGGSTYADSVKGRFTISRDNAKNTVYLQMNSLKPEDTAVYYCAAPNRYSVPMYYWGQGTQVTVSS”, the “polyreactivity (PSR sort gate)” value is “low polyreactivity”.

Regarding “QVQLVESGGGLVQAGGSLRLSCAASGSTFGTNDMGWYRQAPGKEREFVASIDWSGDSTNYADSVKGRFTISRDNAKNTVYLQMNSLKPEDTAVYYCAARVFPPSRHDYWGQGTQVTVSS”, the “polyreactivity (PSR sort gate)” value was “high polyreactivity”.

For “QVQLVESGGGLVQAGGSLRLSCAASGSTFGTNVMGWYRQAPGKERELVAAISGRGGRTYYADSVKGRFTISRDNAKNTVYLQMNSLKPEDTAVYYCAAPRYYSREYDYWGQGTQVTVSS”, the “polyreactivity (PSR sort gate)” value is on record as “high polyreactivity”.

“QVQLVESGGGLVQAGGSLRLSCAASGSTFGTYAMGWYRQAPGKERELVADITGSGGSTYYADSVKGRFTISRDNAKNTVYLQMNSLKPEDTAVYYCAAEYGLGDDTAYGYWGQGTQVTVSS”: the “polyreactivity (PSR sort gate)” value was “low polyreactivity”.

In the case of “QVQLVESGGGLVQAGGSLRLSCAASGSTFGVNAKGWYREAPGKERELVAGITSSGGSTYYADSVKGRFTTSRDNAKNTVYLQMNSLKPEDTAVYYCAARWIPASYGYGYWGQGTQVTVSS”, the “polyreactivity (PSR sort gate)” value is reported as “low polyreactivity”.

As for “QVQLVESGGGLVQAGGSLRLSCAASGSTFGVNAMGWYRQAPGKERELVAAIDADGGITYYADSVKGRFTISRDNAKNTVYLQMNILKPEDTAVYYCAARVAVYFSYGSPYWYEYDYWGQGTQVTVSS”, the “polyreactivity (PSR sort gate)” value is given as “low polyreactivity”.

As for “QVQLVESGGGLVQAGGSLRLSCAASGSTFGVNAMGWYRQAPGKERELVAAISVSGGRTYYADSVKGRFTISRDNAKNTVYLLMNSLKPEDTAVYYCAATTYIWPYDYWGQGTQVTVSS”, the “polyreactivity (PSR sort gate)” value is “low polyreactivity”.

With “QVQLVESGGGLVQAGGSLRLSCAASGSTFGVNAMGWYRQAPGKERELVAGISVDDSTTYYADSVKGRFTISRDNAKNTVYLQMNSLIPEDTAVYYCAAEREKTLYYLSRFDYWGQGTQVTVSS”, the “polyreactivity (PSR sort gate)” value is listed as “low polyreactivity”.

Take “QVQLVESGGGLVQAGGSLRLSCAASGSTFGVNAMGWYRQAPGKERELVASISSGGGTYYADSVKGRFTISRDNAKNTVYLQMNSLKPEDTAVYYCAAVYYWYDSYAGYDYWGQGTQVTVSS”: the “polyreactivity (PSR sort gate)” value is listed as “low polyreactivity”.

Take “QVQLVESGGGLVQAGGSLRLSCAASGSTFGVNDMGWYRQAPGKERELVAAISRGAITNYADSVKGRFTISRDNAKNTVYLQMNSLKPEDTAVYYCAAGFVTYYVPQYKEYGYDYWGQGTQVTVSS”: the “polyreactivity (PSR sort gate)” value is “low polyreactivity”.

On to “QVQLVESGGGLVQAGGSLRLSCAASGSTFGVYALGWYIPAPGKERELVDRITWSGGSTYYADSVKGRFTISRDNAKNTVYLQMNSLKPEDTAVFYCAARAWWDWYSPLWYYYWGQGTQVTVSS”, for which the “polyreactivity (PSR sort gate)” value is given as “high polyreactivity”.

On to “QVQLVESGGGLVQAGGSLRLSCAASGSTFGVYAMGWYRQAPAKEMELVARITWSGGSTDYADSVKGRFTISRDNAKNTVYLQMNSLKPEDTAVYYCAARAWWDWYSPRWYYYWGQGTQVTVSS”, for which the “polyreactivity (PSR sort gate)” value is given as “high polyreactivity”.

In the case of “QVQLVESGGGLVQAGGSLRLSCAASGSTFGVYAMGWYRQAPGKERELVAAINYSGRTYYADSVKGRFTISRDNAKNTVYLQMNSLKPEDTAVYYCAARIIVDDVGTKYYYWGQGTQVTVSS”, the “polyreactivity (PSR sort gate)” value is given as “high polyreactivity”.

With “QVQLVESGGGLVQAGGSLRLSCAASGSTFGVYAMGWYRQAPGKERELVAAISGSGGSTYYADSVKGRFTISRDNAKNTVYLQMNSLKPEDTAVYYCAAKVRHYYSASNYYYWGQGTQVTVSS”, the “polyreactivity (PSR sort gate)” value was “high polyreactivity”.

On to “QVQLVESGGGLVQAGGSLRLSCAASGSTFGVYAMGWYRQAPGKERELVAAISYTGGSTYYADSVKGRFTISRDNAKNTVYLQMNSLKPEDTAVYYCATRSRDQYSVSYRLDYWGQGTQVTVSS”, for which the “polyreactivity (PSR sort gate)” value is “low polyreactivity”.

Turning to “QVQLVESGGGLVQAGGSLRLSCAASGSTFGVYAMGWYRQAPGKERELVATITRSGGNTYYADSVKGRFTISRDNAKNTVYLQMNSLKPEDTAVYYCAARRLYGSQRGYWGQGTQVTVSS”, the “polyreactivity (PSR sort gate)” value is “high polyreactivity”.

With “QVQLVESGGGLVQAGGSLRLSCAASGSTFGVYARGWYRQAPGKERELVAAIRDRGGSTYYADSVKGRFTISRDNAKNTVYLQMNSLKPEDTAVYYCATRTWWEYYYWGQGTQVTVSS”, the “polyreactivity (PSR sort gate)” value is “high polyreactivity”.

Regarding “QVQLVESGGGLVQAGGSLRLSCAASGSTFGVYARGWYRQAPGKERELVAAISSSTGSTYYADSVKGRFTISRDNEKNTVYLQMNSLKPEDTAVYYCAAAGYGKVRGDYWGQGTQVTVSS”, the “polyreactivity (PSR sort gate)” value is reported as “low polyreactivity”.

Take “QVQLVESGGGLVQAGGSLRLSCAASGSTFGWNAMGWYRKAPGKERELVAAISSYGGITYYADSVKGRFTISRDNEKNTVYLQMNSLKPEDTAVYYCAAERDDDWVNYWGQVTQVTVSS”: the “polyreactivity (PSR sort gate)” value is given as “low polyreactivity”.

On to “QVQLVESGGGLVQAGGSLRLSCAASGSTFGWNAMGWYRQAPGKERDLVAAITGGGSTYYADSVKGRFTISRDNAKNTVYLQMNSLKPEDSAVYYCEGDYWGQGTQVTVSS”, for which the “polyreactivity (PSR sort gate)” value is “low polyreactivity”.

For the sequence “QVQLVESGGGLVQAGGSLRLSCAASGSTFGWNAMGWYRQAPGKERELVAAITADDDDTYYADSVKGRFTISRDNAKNTVYLQMNSLKPEDTAVYYCATEKWFWYGDWYDYWGQGTQVTLSS”, the “polyreactivity (PSR sort gate)” value is reported as “high polyreactivity”.

Take “QVQLVESGGGLVQAGGSLRLSCAASGSTFGWNAMGWYRQAPGKERELVAAITRGGRTTYADSVKGRFTISRDNAKNTVYLQMNSLKPEDTAVYYCAALHGRYPNRYDYWGQGTQVTVSS”: the “polyreactivity (PSR sort gate)” value is recorded as “low polyreactivity”.

In the case of “QVQLVESGGGLVQAGGSLRLSCAASGSTFGWYAMGWYRKAPGKERELVAAISTTGGRTYYADSVKGRFTISRDNAKNTVYLQMNSLKPEDTAVYYCNARGRRYVYSYGYDYWGQGTQVTVSS”, the “polyreactivity (PSR sort gate)” value was “high polyreactivity”.

Turning to “QVQLVESGGGLVQAGGSLRLSCAASGSTFGWYAMGWYRQAPGKERDFVASITSSTGSTYYADSVKGRFTISRDNAKNTVYLQMYSLKPEDTAVYYCAASYVYTFLSYLLEYDYWGQGTQVTVSS”, the “polyreactivity (PSR sort gate)” value is “high polyreactivity”.

Take “QVQLVESGGGLVQAGGSLRLSCAASGSTFGWYAMGWYRQAPGKERELVAAITSGGGTYYADSVKGRFTISRDNAKNTVYLQMNSLKPEVTAVYYCAADFVYSGWAPYDFWVTSYDYWGQGTQVTVSS”: the “polyreactivity (PSR sort gate)” value is reported as “low polyreactivity”.

Regarding “QVQLVESGGGLVQAGGSLRLSCAASGSTFGWYAMGWYRQAPGKERELVASITSGGRTNYADSVKGRFTISRDNAKNTVYLQMNSLKTEDTAVYYCAKRVYGSNSLYDYWGQGTQVTVSS”, the “polyreactivity (PSR sort gate)” value is reported as “low polyreactivity”.

Consider “QVQLVESGGGLVQAGGSLRLSCAASGSTFGWYVMGWYRQAPGKERELVAAITTGGSTNYADSVKGRFTISRDHAKNSVYLQMNSLKPEDTAVYYCGKAVTEVIYRGVTEGAVDYWGQGTQVTVSS”, for which the “polyreactivity (PSR sort gate)” value is “low polyreactivity”.

“QVQLVESGGGLVQAGGSLRLSCAASGSTFGYNAMGWYRQAPGKERELVAAISWSGGSTYYADSVKGRFTISRDNAKNTVYLQMNSLKPEDTAVYYCAALTHYGGYGYTYDYWGQGTQVTVSS”: the “polyreactivity (PSR sort gate)” value is on record as “low polyreactivity”.

Turning to “QVQLVESGGGLVQAGGSLRLSCAASGSTFGYNAMGWYRQAPGKERELVAAITWSGGSTYYADSVKGRFTISRDNAKNTFYFQMNSLKPEDTAVYYCAAEWGVGKSWLEYLLFYYWGQGTQVTVSS”, the “polyreactivity (PSR sort gate)” value is given as “low polyreactivity”.

“QVQLVESGGGLVQAGGSLRLSCAASGSTFGYNAMGWYRQAPGKERELVAAITYRGSTYYADSVKGRFTISRDNAKNTVYLQMNSLKPEDTAVYYCATQGARYYHTYGYWGQGTQVTVSS”: the “polyreactivity (PSR sort gate)” value is “low polyreactivity”.

“QVQLVESGGGLVQAGGSLRLSCAASGSTFGYNTMGWYREAPGKERELVAAITGTGRTNYADSVKGRFTISRDNAKNTVYLQMNSLKPEDTAVYYCNARQAGTRYKYGYYGRYYWGQGTQVTVSS”: the “polyreactivity (PSR sort gate)” value is reported as “high polyreactivity”.

For the sequence “QVQLVESGGGLVQAGGSLRLSCAASGSTFGYYAMGWYRQAPGKEMELVAAITSGASTNYADSVKGRFTISRDNAKNTVYLQMNSLKPEDTAVYYCAADFLSPAYRPSWYRFDYWGQGTQVTVSS”, the “polyreactivity (PSR sort gate)” value is reported as “low polyreactivity”.

As for “QVQLVESGGGLVQAGGSLRLSCAASGSTFGYYAMGWYRQAPGKERELVAAIRSSGGGTYYADSVKGRFTISRDNAKNTVYLQMNSLKPEDTAVYYCATDAPILVNAEYDEWLEYDYWGQGTQVTVSS”, the “polyreactivity (PSR sort gate)” value is “low polyreactivity”.

Turning to “QVQLVESGGGLVQAGGSLRLSCAASGSTFGYYAMGWYRQAPGKERELVAAITGRGGSTYYADSVKGRFTISRDNAKNTVYLQMNSLKPEDTAVYYCAVGKYRLYYSGAYGYWGQGTQVTVSS”, the “polyreactivity (PSR sort gate)” value is given as “high polyreactivity”.

In the case of “QVQLVESGGGLVQAGGSLRLSCAASGSTFGYYAMGWYRQAPGKERELVAAITKRSGRTYYADSVKGRFTISRDNAKNTVYLQLNSLKPEDTAVYYCAARYTFDRWKFGYWGQGTQVTVSS”, the “polyreactivity (PSR sort gate)” value is recorded as “high polyreactivity”.

With “QVQLVESGGGLVQAGGSLRLSCAASGSTFGYYAMGWYRQAPGKERELVAGISSGGTTKYADSVKGRFTISRDNAKNTVYLQMNSLTPVDTAVYYCAARFRRTRVTYYYWGQGTQVTVSS”, the “polyreactivity (PSR sort gate)” value is “high polyreactivity”.

“QVQLVESGGGLVQAGGSLRLSCAASGSTFGYYAMGWYRQAPGKERELVAVITRSGDRTYYADSVKGRFTISRDNAKNTVYLQMNSLKPEDTGVYYCAARATSAGGVAEYYWGQGTQVTVSS”: the “polyreactivity (PSR sort gate)” value was “high polyreactivity”.

For the sequence “QVQLVESGGGLVQAGGSLRLSCAASGSTFHIYAMGWYRQAPGKERELVAAINRSGGSTRYADSVKGRFTISRDNAKNTVYLQMNSLKPEDTAVYYCATKRSTGYYWGQGTQVTVSS”, the “polyreactivity (PSR sort gate)” value is “high polyreactivity”.

For “QVQLVESGGGLVQAGGSLRLSCAASGSTFHLNAMGWYRQAPGKERELVAAISWDGSSTSYADSVKGRFTISRDNANNTVYLQMNSLKPEDTAVYYCAADDTLDRVPTTFIDGSPGYGYWGQGTQVTVSS”, the “polyreactivity (PSR sort gate)” value is recorded as “low polyreactivity”.
